T1: BCMA expressed on target cells (CHO-K1-BCMA recombinant cell line; MM.1S; RPMI8226) (human, UniProt Q02223 1-184)
T1 sequence (looked up): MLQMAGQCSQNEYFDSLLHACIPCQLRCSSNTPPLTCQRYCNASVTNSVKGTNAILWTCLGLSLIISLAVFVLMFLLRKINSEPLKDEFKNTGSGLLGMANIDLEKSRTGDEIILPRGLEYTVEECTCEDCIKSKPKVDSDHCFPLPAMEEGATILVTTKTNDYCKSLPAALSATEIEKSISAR

T2: CD19 expressed on Nalm6 cells (UniProt P15391 20-556, limits assumed)
T2 sequence (looked up): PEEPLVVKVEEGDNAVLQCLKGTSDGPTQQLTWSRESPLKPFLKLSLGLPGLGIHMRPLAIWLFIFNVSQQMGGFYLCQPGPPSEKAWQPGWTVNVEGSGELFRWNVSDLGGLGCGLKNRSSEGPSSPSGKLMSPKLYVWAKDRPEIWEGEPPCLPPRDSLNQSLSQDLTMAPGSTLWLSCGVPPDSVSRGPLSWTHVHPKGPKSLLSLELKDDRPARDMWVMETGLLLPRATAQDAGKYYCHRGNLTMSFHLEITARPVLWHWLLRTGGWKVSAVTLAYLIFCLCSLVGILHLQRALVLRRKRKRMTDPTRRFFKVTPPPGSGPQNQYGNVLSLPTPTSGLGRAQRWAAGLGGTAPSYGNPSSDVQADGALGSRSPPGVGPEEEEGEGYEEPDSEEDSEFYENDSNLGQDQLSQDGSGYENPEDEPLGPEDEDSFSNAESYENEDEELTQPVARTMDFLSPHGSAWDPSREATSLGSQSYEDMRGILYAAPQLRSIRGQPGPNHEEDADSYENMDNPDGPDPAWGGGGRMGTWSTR

T3: human BCMA (antigen) (human, UniProt Q02223 1-54, limits assumed)
T3 construct: Antigen coupled to the CM5 chip in SPR; also called B-cell maturation antigen; TNFRF17
T3 sequence (looked up): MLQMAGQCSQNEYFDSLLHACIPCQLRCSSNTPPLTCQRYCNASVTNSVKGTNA

T4: human CD19 (antigen) (human, UniProt P15391 20-291, limits assumed)
T4 sequence (looked up): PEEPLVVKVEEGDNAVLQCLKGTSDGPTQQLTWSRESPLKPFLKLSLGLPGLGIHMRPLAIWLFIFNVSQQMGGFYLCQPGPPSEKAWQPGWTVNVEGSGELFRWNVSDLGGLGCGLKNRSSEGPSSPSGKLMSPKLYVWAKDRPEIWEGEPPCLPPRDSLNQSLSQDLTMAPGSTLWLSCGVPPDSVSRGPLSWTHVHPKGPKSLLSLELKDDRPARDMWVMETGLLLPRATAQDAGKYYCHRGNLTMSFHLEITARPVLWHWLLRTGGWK

B1: TanCAR 04 (other)
chain: QVTLRESGPALVKPTQTLTLTCTFSGVSLPDYGVSWIRQPPGKALEWLAVIWGSETTYYNSALKSRLTISKDTSKNQVVLTMTNMDPVDTATYYCAKHYYYGGSYAMDYWGQGTTVTVSSGGGGSGGGGSGGGGSEIVLTQSPATLSLSPGERATLSCRASQDISKYLNWYQQKPGQAPRLLIYHTSRLHSGIPDRFSGSGSGTDFTLTISRLEPEDIAVYYCQQGNTLPYTFGQGTKLEIEAAAKEAAAKEAAAKDIVMTQSPLSLPVTPGEPASISCRSSQSLVHSNGNTFLHWYLQKPGQSPQLLIYKVSNRFSGVPDRFSGSGSGTDFTLKISRVEAEDVGVYYCMQSTHVLTFGGGTKLEIKRAGGGGSGGGGSGGGGSQVQLVQSGAEVKKPGASVKVSCKASGYTFTDYLMHWVRQAPGQGLEWMGWINTETGEPTYADDFKGRVTMTRDTSTSTVYMELSSLRSEDTAVYYCAPSLYYGYSWFTYWGQGTLVTVSTTTPAPRPPTPAPTIASQPLSLRPEACRPAAGGAVHTRGLDFACDIYIWAPLAGTCGVLLLSLVITLYCKRGRKKLLYIFKQPFMRPVQTTQEEDGCSCRFPEEEEGGCELRVKFSRSADAPAYKQGQNQLYNELNLGRREEYDVLDKRRGRDPEMGGKPRRKNPQEGLYNELQKDKMAEAYSEIGMKGERRRGKGHDGLYQGLSTATKDTYDALHMQALPPR
notes: Tandem bispecific chimeric antigen receptor on human T cells; built here from its parts without the signal peptide; also called TanCAR 04 CAR-T
B2: H-BCMA CAR (other)
chain: DIVMTQSPLSLPVTPGEPASISCRSSQSLVHSNGNTFLHWYLQKPGQSPQLLIYKVSNRFSGVPDRFSGSGSGTDFTLKISRVEAEDVGVYYCMQSTHVLTFGGGTKLEIKRAGGGGSGGGGSGGGGSQVQLVQSGAEVKKPGASVKVSCKASGYTFTDYLMHWVRQAPGQGLEWMGWINTETGEPTYADDFKGRVTMTRDTSTSTVYMELSSLRSEDTAVYYCAPSLYYGYSWFTYWGQGTLVTVSTTTPAPRPPTPAPTIASQPLSLRPEACRPAAGGAVHTRGLDFACDIYIWAPLAGTCGVLLLSLVITLYCKRGRKKLLYIFKQPFMRPVQTTQEEDGCSCRFPEEEEGGCELRVKFSRSADAPAYKQGQNQLYNELNLGRREEYDVLDKRRGRDPEMGGKPRRKNPQEGLYNELQKDKMAEAYSEIGMKGERRRGKGHDGLYQGLSTATKDTYDALHMQALPPR
notes: Chimeric antigen receptor on human T cells; built here from its parts without the signal peptide; also called H-BCMA CAR-T; BCMA CAR-T
B3: TanCAR 03 (other)
chain: QVTLRESGPALVKPTQTLTLTCTFSGVSLPDYGVSWIRQPPGKALEWLAVIWGSETTYYNSALKSRLTISKDTSKNQVVLTMTNMDPVDTATYYCAKHYYYGGSYAMDYWGQGTTVTVSSGGGGSGGGGSGGGGSEIVLTQSPATLSLSPGERATLSCRASQDISKYLNWYQQKPGQAPRLLIYHTSRLHSGIPDRFSGSGSGTDFTLTISRLEPEDIAVYYCQQGNTLPYTFGQGTKLEIGGGGSGGGGSGGGGSGGGGSDIVMTQSPLSLPVTPGEPASISCRSSQSLVHSNGNTFLHWYLQKPGQSPQLLIYKVSNRFSGVPDRFSGSGSGTDFTLKISRVEAEDVGVYYCMQSTHVLTFGGGTKLEIKRAGGGGSGGGGSGGGGSQVQLVQSGAEVKKPGASVKVSCKASGYTFTDYLMHWVRQAPGQGLEWMGWINTETGEPTYADDFKGRVTMTRDTSTSTVYMELSSLRSEDTAVYYCAPSLYYGYSWFTYWGQGTLVTVSTTTPAPRPPTPAPTIASQPLSLRPEACRPAAGGAVHTRGLDFACDIYIWAPLAGTCGVLLLSLVITLYCKRGRKKLLYIFKQPFMRPVQTTQEEDGCSCRFPEEEEGGCELRVKFSRSADAPAYKQGQNQLYNELNLGRREEYDVLDKRRGRDPEMGGKPRRKNPQEGLYNELQKDKMAEAYSEIGMKGERRRGKGHDGLYQGLSTATKDTYDALHMQALPPR
notes: Tandem bispecific chimeric antigen receptor on human T cells; built here from its parts without the signal peptide; also called TanCAR 03 CAR-T
B4: TanCAR 01 (other)
chain: DIVMTQSPLSLPVTPGEPASISCRSSQSLVHSNGNTFLHWYLQKPGQSPQLLIYKVSNRFSGVPDRFSGSGSGTDFTLKISRVEAEDVGVYYCMQSTHVLTFGGGTKLEIKRAGGGGSGGGGSGGGGSQVQLVQSGAEVKKPGASVKVSCKASGYTFTDYLMHWVRQAPGQGLEWMGWINTETGEPTYADDFKGRVTMTRDTSTSTVYMELSSLRSEDTAVYYCAPSLYYGYSWFTYWGQGTLVTVSGGGGSGGGGSGGGGSGGGGSQVTLRESGPALVKPTQTLTLTCTFSGVSLPDYGVSWIRQPPGKALEWLAVIWGSETTYYNSALKSRLTISKDTSKNQVVLTMTNMDPVDTATYYCAKHYYYGGSYAMDYWGQGTTVTVSSGGGGSGGGGSGGGGSEIVLTQSPATLSLSPGERATLSCRASQDISKYLNWYQQKPGQAPRLLIYHTSRLHSGIPDRFSGSGSGTDFTLTISRLEPEDIAVYYCQQGNTLPYTFGQGTKLEITTTPAPRPPTPAPTIASQPLSLRPEACRPAAGGAVHTRGLDFACDIYIWAPLAGTCGVLLLSLVITLYCKRGRKKLLYIFKQPFMRPVQTTQEEDGCSCRFPEEEEGGCELRVKFSRSADAPAYKQGQNQLYNELNLGRREEYDVLDKRRGRDPEMGGKPRRKNPQEGLYNELQKDKMAEAYSEIGMKGERRRGKGHDGLYQGLSTATKDTYDALHMQALPPR
notes: Tandem bispecific chimeric antigen receptor on human T cells; built here from its parts without the signal peptide; also called TanCAR 01 CAR-T
B5: H-CD19 CAR (other)
chain: QVTLRESGPALVKPTQTLTLTCTFSGVSLPDYGVSWIRQPPGKALEWLAVIWGSETTYYNSALKSRLTISKDTSKNQVVLTMTNMDPVDTATYYCAKHYYYGGSYAMDYWGQGTTVTVSSGGGGSGGGGSGGGGSEIVLTQSPATLSLSPGERATLSCRASQDISKYLNWYQQKPGQAPRLLIYHTSRLHSGIPDRFSGSGSGTDFTLTISRLEPEDIAVYYCQQGNTLPYTFGQGTKLEITTTPAPRPPTPAPTIASQPLSLRPEACRPAAGGAVHTRGLDFACDIYIWAPLAGTCGVLLLSLVITLYCKRGRKKLLYIFKQPFMRPVQTTQEEDGCSCRFPEEEEGGCELRVKFSRSADAPAYKQGQNQLYNELNLGRREEYDVLDKRRGRDPEMGGKPRRKNPQEGLYNELQKDKMAEAYSEIGMKGERRRGKGHDGLYQGLSTATKDTYDALHMQALPPR
notes: Chimeric antigen receptor on human T cells; built here from its parts without the signal peptide; also called H-CD19 CAR-T; hCD19 CAR-T

Biological target: T1, BCMA expressed on target cells …
Assay: cell-based or functional assay

First: B1
Second: B2
The “lysis rate of CHO-K1-BCMA-luc cells by CAR-T cells, ratio 0.25:1” value of the first is higher: 36.4% for the first, 0% for the second.

Going from B3 to B4, the “lysis rate of CHO-K1-BCMA-luc cells by CAR-T cells, ratio 0.25:1” value rises from 17.8% to 31.3%.

Compared with B1, B2 is lower in “lysis rate of CHO-K1-BCMA-luc cells by CAR-T cells, ratio 0.5:1” value: 52.6% for the first, 27% for the second.

Compared with B3, B4 is higher in “lysis rate of CHO-K1-BCMA-luc cells by CAR-T cells, ratio 0.5:1” value: 27.6% for the first, 34.3% for the second.

Going from B1 to B2, the “lysis rate of CHO-K1-BCMA-luc cells by CAR-T cells, ratio 1:1” value falls from 68.9% to 40.7%.

First: B3
Second: B4
The “lysis rate of CHO-K1-BCMA-luc cells by CAR-T cells, ratio 1:1” value of the first is lower: 40.5% for the first, 63.2% for the second.

First: B1
Second: B2
The “lysis rate of CHO-K1-BCMA-luc cells by CAR-T cells, ratio 2:1” value of the first is higher: 84.1% for the first, 77.9% for the second.

First: B3
Second: B4
The “lysis rate of CHO-K1-BCMA-luc cells by CAR-T cells, ratio 2:1” value of the first is lower: 52.1% for the first, 71% for the second.

Biological target: T2, CD19 expressed on Nalm6 cells
Assay: cell-based or functional assay

Going from B1 to B5, the “lysis rate of Nalm6-luc cells by CAR-T cells, ratio 0.25:1” value falls from 72.7% to 48%.

First: B3
Second: B4
The “lysis rate of Nalm6-luc cells by CAR-T cells, ratio 0.25:1” value of the first is higher: 54.3% for the first, 46.1% for the second.

First: B1
Second: B5
The “lysis rate of Nalm6-luc cells by CAR-T cells, ratio 0.5:1” value of the first is higher: 55.8% for the first, 55% for the second.

Compared with B3, B4 is lower in “lysis rate of Nalm6-luc cells by CAR-T cells, ratio 0.5:1” value: 57.7% for the first, 40% for the second.

Compared with B1, B5 is higher in “lysis rate of Nalm6-luc cells by CAR-T cells, ratio 1:1” value: 68.9% for the first, 72.8% for the second.

Going from B3 to B4, the “lysis rate of Nalm6-luc cells by CAR-T cells, ratio 1:1” value falls from 72.1% to 56.8%.

Compared with B1, B5 is higher in “lysis rate of Nalm6-luc cells by CAR-T cells, ratio 2:1” value: 84.1% for the first, 86.4% for the second.

Compared with B3, B4 is lower in “lysis rate of Nalm6-luc cells by CAR-T cells, ratio 2:1” value: 89.1% for the first, 80.6% for the second.

Biological target: T3, human BCMA (antigen)
Assay: flow cytometry of lentivirus-transduced T cells labelled with antigen, 48 h after transduction; percent positive cells
Text: (§1) The nucleic acid sequence encoding the CAR was expressed under the drive of a promoter, therefore the lentivirus-transfected T cells could be labeled with an antigen or anti-CD19 antibody and measured by flow cytometry, to reflect the expression level of the CAR on the surface of the T cells.

Going from B1 to B2, the “Positive rate of binding to BCMA” value rises from 15.9% to 26.9%.

Going from B5 to B3, the “Positive rate of binding to BCMA” value rises from 0.98% to 6.07%.

For B4, the “Positive rate of binding to BCMA” value was 11.3%.

Biological target: T4, human CD19 (antigen)
Assay: flow cytometry of lentivirus-transduced T cells labelled with antigen or anti-CD19 antibody, 48 h after transduction; percent positive cells
Text: as §1

First: B1
Second: B2
The “Positive rate of binding to CD19” value of the first is higher: 16.1% for the first, 0.31% for the second.

Going from B5 to B3, the “Positive rate of binding to CD19” value falls from 14.7% to 8.99%.

B4 was tested, and the “Positive rate of binding to CD19” value was 10.6%.

— patent publication US20230203178A1 (SICHUAN KELUN BIOTECH BIOPHARMACEUTICAL, published 2023)
